Assay results: the supplement of paper PMC10126150
± gives the standard deviation of the averaged measurements.

What follows are sequences tested on ATP (assay: switch fluorescence ratio, 500 uM ATP over buffer (Cy3 cluster intensity, sum of 5 cycles each) (fold (ratio)); higher = stronger signal-on switching upon ATP binding; sequences stand for … in TCGTCGGCAGCGTCAGATGTGTATAAGAGACAGTTTTTTTTTTTTTTTTTTTTTTTTT…TC). Details: aptamer strand: ATP DNA aptamer (quencher-CACCTGGGGGAGTATTGCGGAGGAAGG + anchor), 100 nM annealed; ATP concentration: 500 uM.
In short: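 Values give the fluorescence ratio for each switch-domain sequence, averaged from per-cluster ratios of summed target-cycle to summed buffer-cycle Cy3 intensity. The Cy3-labelled switching-strand clusters sat on a modified Illumina MiSeq flow-cell, were annealed to 100 nM quencher-labelled ATP aptamer, and were imaged in selection buffer, then after 15 min with 500 uM ATP at 22 °C. Five cycles ran with NaOH stripping and re-annealing between them, and clusters outside 100-1000 RFU were excluded.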
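Note: ATP exposure 15 min at 22 °C before imaging.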

| Sequence | switch fluorescence ratio |
| --- | --- |
| GGGGGTACTG | 0.965 ± 0.028 |
| GGGGGTAGAG | 0.988 ± 0.015 |
| GGGGGTAGGA | 1.02 ± 0.038 |
| GGGGGTAGGT | 0.985 ± 0.036 |
| GGGGGTATCG | 0.967 ± 0.021 |
| GGGGGTCACT | 0.993 ± 0.026 |
| GGGGGTCGAC | 0.996 ± 0.043 |
| GGGGGTCTTA | 0.9974 ± 0.0063 |
| GGGGGTGCTG | 0.993 ± 0.025 |
| GGGGGTGCTT | 1.03 ± 0.056 |
| GGGGGTGTCT | 0.99 ± 0.034 |
| GGGGGTTACC | 0.988 ± 0.02 |
| GGGGGTTCTT | 1.01 ± 0.049 |
| GGGGGTTGAA | 1 ± 0.029 |
| GGGGGTTTCG | 0.999 ± 0.036 |
| GGGGTAAATC | 1.01 ± 0.024 |
| GGGGTAAGAG | 1.019 ± 0.0038 |
| GGGGTAAGTA | 0.986 ± 0.027 |
| GGGGTAAGTT | 0.989 ± 0.035 |
| GGGGTACAGG | 1.005 ± 0.0055 |
| GGGGTACGAG | 1.02 ± 0.033 |
| GGGGTAGGCG | 0.959 ± 0.051 |
| GGGGTAGTG | 1.03 ± 0.067 |
| GGGGTATCCA | 1.03 ± 0.03 |
| GGGGTATCTT | 1.04 ± 0.017 |
| GGGGTATGAG | 0.972 ± 0.029 |

| Sequence | switch fluorescence ratio |
| --- | --- |
| GGGGTATTGC | 1.004 ± 0.0076 |
| GGGGTATTTG | 0.99 ± 0.012 |
| GGGGTCAACG | 0.963 ± 0.035 |
| GGGGTCATTT | 0.979 ± 0.027 |
| GGGGTCCTGG | 0.943 ± 0.022 |
| GGGGTCGGGA | 0.999 ± 0.011 |
| GGGGTCGGGT | 0.99 ± 0.012 |
| GGGGTCGTGT | 0.992 ± 0.023 |
| GGGGTCGTTC | 0.99 ± 0.028 |
| GGGGTGAAAT | 1 ± 0.018 |
| GGGGTGAGCA | 0.976 ± 0.029 |
| GGGGTGAGTG | 1.02 ± 0.045 |
| GGGGTGCCAG | 0.963 ± 0.058 |
| GGGGTGCGTG | 0.984 ± 0.045 |
| GGGGTGCTG | 1.02 ± 0.036 |
| GGGGTGCTTG | 0.988 ± 0.026 |
| GGGGTGGGTA | 0.998 ± 0.028 |
| GGGGTGGTCG | 0.986 ± 0.083 |
| GGGGTGTGGT | 0.998 ± 0.038 |
| GGGGTTAACT | 0.975 ± 0.022 |
| GGGGTTAGAA | 0.984 ± 0.0077 |
| GGGGTTCAAA | 0.997 ± 0.016 |
| GGGGTTCATT | 1.01 ± 0.04 |
| GGGGTTCC | 0.998 ± 0.0092 |
| GGGGTTCCTC | 0.9919 ± 0.0096 |
| GGGGTTGACG | 0.964 ± 0.059 |

| Sequence | switch fluorescence ratio |
| --- | --- |
| GGGGTTGGGT | 1.03 ± 0.026 |
| GGGGTTGGTA | 1.005 ± 0.006 |
| GGGGTTGTAG | 0.993 ± 0.047 |
| GGGGTTGTGA | 1.01 ± 0.022 |
| GGGGTTTACA | 0.989 ± 0.026 |
| GGGGTTTCTT | 0.987 ± 0.048 |
| GGGGTTTGAA | 0.984 ± 0.016 |
| GGGGTTTGTT | 0.992 ± 0.034 |
| GGGGTTTTTG | 0.995 ± 0.029 |
| GGGTAAAGGA | 0.985 ± 0.028 |
| GGGTAACGGT | 0.9802 ± 0.0045 |
| GGGTAAGGGA | 0.961 ± 0.013 |
| GGGTAAGGGG | 1.05 ± 0.098 |
| GGGTAAGTAT | 0.958 ± 0.04 |
| GGGTAAGTGC | 1.047 ± 0.0017 |
| GGGTAATATG | 1.01 ± 0.049 |
| GGGTACCGAC | 1.08 ± 0.036 |
| GGGTACGCCG | 0.934 ± 0.025 |
| GGGTACGGAT | 1.04 ± 0.016 |
| GGGTACGGTA | 1.05 ± 0.029 |
| GGGTACGGTG | 1.07 ± 0.022 |
| GGGTACTTGG | 0.99 ± 0.026 |
| GGGTAGACTG | 0.955 ± 0.03 |
| GGGTAGCAGG | 1.04 ± 0.01 |
| GGGTAGCGCT | 0.969 ± 0.039 |
| GGGTAGGAGG | 0.982 ± 0.013 |

| Sequence | switch fluorescence ratio |
| --- | --- |
| GGGTATATGT | 1 ± 0.014 |
| GGGTATATTT | 1 ± 0.065 |
| GGGTATGAAG | 1.04 ± 0.049 |
| GGGTATGTAG | 0.986 ± 0.024 |
| GGGTATTGAG | 0.991 ± 0.012 |
| GGGTATTTTG | 0.997 ± 0.046 |
| GGGTCACTGG | 0.9765 ± 0.0056 |
| GGGTCAGGTG | 3.44 ± 0.48 |
| GGGTCAGTTT | 1.04 ± 0.054 |
| GGGTCCATGC | 1.01 ± 0.018 |
| GGGTCCATTC | 1.01 ± 0.02 |
| GGGTCGCGTG | 1.02 ± 0.033 |
| GGGTCTAAGG | 1.007 ± 0.0045 |
| GGGTCTAGGA | 1.006 ± 0.0052 |
| GGGTCTCGAG | 0.9866 ± 0.0096 |
| GGGTCTGGTG | 1.04 ± 0.057 |
| GGGTCTGGTT | 0.976 ± 0.033 |
| GGGTGAAAAG | 1.04 ± 0.033 |
| GGGTGAAGAA | 0.967 ± 0.019 |
| GGGTGAAGGC | 0.971 ± 0.058 |
| GGGTGAGCTG | 0.98 ± 0.04 |
| GGGTGAGGCG | 0.981 ± 0.038 |
| GGGTGAGGGT | 0.993 ± 0.015 |
| GGGTGAGGTT | 0.997 ± 0.021 |
| GGGTGAGTAG | 1.02 ± 0.067 |
| GGGTGATGGT | 0.964 ± 0.053 |

| Sequence | switch fluorescence ratio |
| --- | --- |
| GGGTGATTGA | 0.988 ± 0.021 |
| GGGTGCCGGT | 1.01 ± 0.024 |
| GGGTGCTGCT | 0.954 ± 0.033 |
| GGGTGGAATT | 1.005 ± 0.0092 |
| GGGTGGATGT | 1.01 ± 0.012 |
| GGGTGGCATT | 0.957 ± 0.0032 |
| GGGTGGCGTG | 0.981 ± 0.082 |
| GGGTGGGCCA | 0.969 ± 0.035 |
| GGGTGGGGCA | 1.01 ± 0.045 |
| GGGTGGGTGG | 0.989 ± 0.017 |
| GGGTGTAATC | 1.01 ± 0.024 |
| GGGTGTAGCC | 1.04 ± 0.037 |
| GGGTGTAGTT | 0.999 ± 0.036 |
| GGGTGTGAGG | 0.983 ± 0.025 |
| GGGTGTTCGT | 1.004 ± 0.0028 |
| GGGTGTTGTC | 1.006 ± 0.01 |
| GGGTGTTTGT | 1 ± 0.018 |
| GGGTGTTTTG | 0.996 ± 0.013 |
| GGGTTAAAAC | 1.01 ± 0.043 |
| GGGTTAAACT | 0.987 ± 0.023 |
| GGGTTAGGGG | 1.01 ± 0.04 |
| GGGTTATAGG | 0.978 ± 0.025 |
| GGGTTATGCT | 0.99 ± 0.046 |
| GGGTTCAGAG | 1 ± 0.042 |
| GGGTTCCTAG | 1.01 ± 0.041 |
| GGGTTCTCTC | 0.98 ± 0.011 |

| Sequence | switch fluorescence ratio |
| --- | --- |
| GGGTTCTTTG | 1.03 ± 0.064 |
| GGGTTGACCC | 0.993 ± 0.024 |
| GGGTTGACGC | 1.01 ± 0.013 |
| GGGTTGCTAC | 1.02 ± 0.017 |
| GGGTTGGCTA | 0.964 ± 0.047 |
| GGGTTGGCTG | 0.989 ± 0.048 |
| GGGTTGGGGG | 1 ± 0.032 |
| GGGTTGGGGT | 0.997 ± 0.041 |
| GGGTTGTATG | 0.997 ± 0.038 |
| GGGTTGTCCG | 1.05 ± 0.07 |
| GGGTTGTCGT | 1.01 ± 0.062 |
| GGGTTGTGAT | 0.984 ± 0.014 |
| GGGTTTAAGT | 0.986 ± 0.023 |
| GGGTTTAATC | 1.08 ± 0.077 |
| GGGTTTACCT | 1.05 ± 0.051 |
| GGGTTTAGCG | 1.014 ± 0.0022 |
| GGGTTTAGGG | 1 ± 0.045 |
| GGGTTTATGA | 0.98 ± 0.04 |
| GGGTTTCACG | 0.983 ± 0.023 |
| GGGTTTGAGC | 0.981 ± 0.033 |
| GGGTTTGGCT | 1.01 ± 0.029 |
| GGGTTTGTTA | 1 ± 0.018 |
| GGGTTTGTTT | 1.02 ± 0.046 |
